# According to PMC6936867:
# Experiments:
# [1] = target: FcγRIIIa F158 (UniProt P08637); assay: SPR
# [2] = target: FcγRIIa R131 (UniProt P12318); assay: SPR
# [3] = target: FcγRIIIa V158; assay: SPR
# [4] = target: FcγRIIa H131 (UniProt P12318); assay: SPR
# [5] = target: FcγRIIb (UniProt P31994); assay: SPR
# [6] = target: CAP256-VRC26.25 IgG3*17 (human); assay: SPR; antibodies printed at 200 nM in 25 mM sodium acetate pH 5.0 on an NHS/EDC-activated carboxymethyldextran gold prism (CFM, MX96 array reader); FcγRs injected in PBS + 0.05% Tween 20, 8-part 3-fold dilution series generally starting between 10 and 50 μM, 5 min association, 5 min dissociation; kinetic global analysis for KD
# FcγRIIIa V158, sequence (P08637 17-208 F176V): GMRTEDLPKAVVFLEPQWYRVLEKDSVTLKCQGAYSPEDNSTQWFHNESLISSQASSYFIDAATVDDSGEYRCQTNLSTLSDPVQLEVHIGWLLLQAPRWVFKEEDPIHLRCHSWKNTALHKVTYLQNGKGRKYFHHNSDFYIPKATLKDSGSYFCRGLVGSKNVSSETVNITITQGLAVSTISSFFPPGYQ
# FcγRIIIa F158, sequence (P08637 17-254): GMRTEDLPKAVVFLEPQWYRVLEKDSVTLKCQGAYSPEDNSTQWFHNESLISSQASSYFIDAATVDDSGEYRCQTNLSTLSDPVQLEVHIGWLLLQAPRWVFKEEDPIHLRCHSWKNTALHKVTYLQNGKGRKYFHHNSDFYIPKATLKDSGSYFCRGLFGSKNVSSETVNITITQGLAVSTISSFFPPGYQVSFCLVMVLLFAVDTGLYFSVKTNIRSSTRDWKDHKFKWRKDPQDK
# FcγRIIa R131, sequence (P12318 34-217 H167R): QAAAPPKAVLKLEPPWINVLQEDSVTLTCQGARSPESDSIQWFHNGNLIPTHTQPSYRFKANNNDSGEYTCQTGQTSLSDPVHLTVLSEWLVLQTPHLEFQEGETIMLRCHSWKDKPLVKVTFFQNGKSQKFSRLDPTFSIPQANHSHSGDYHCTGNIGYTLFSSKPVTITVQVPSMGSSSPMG
# FcγRIIa H131, sequence (P12318 34-317): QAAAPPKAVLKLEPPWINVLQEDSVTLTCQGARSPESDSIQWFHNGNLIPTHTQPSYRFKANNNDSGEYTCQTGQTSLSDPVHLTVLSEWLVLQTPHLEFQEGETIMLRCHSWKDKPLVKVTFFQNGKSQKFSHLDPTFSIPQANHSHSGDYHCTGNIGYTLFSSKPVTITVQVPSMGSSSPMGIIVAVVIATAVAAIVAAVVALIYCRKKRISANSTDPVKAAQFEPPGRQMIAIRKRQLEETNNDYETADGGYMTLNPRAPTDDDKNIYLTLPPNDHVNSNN
# FcγRIIb, sequence (P31994 43-310): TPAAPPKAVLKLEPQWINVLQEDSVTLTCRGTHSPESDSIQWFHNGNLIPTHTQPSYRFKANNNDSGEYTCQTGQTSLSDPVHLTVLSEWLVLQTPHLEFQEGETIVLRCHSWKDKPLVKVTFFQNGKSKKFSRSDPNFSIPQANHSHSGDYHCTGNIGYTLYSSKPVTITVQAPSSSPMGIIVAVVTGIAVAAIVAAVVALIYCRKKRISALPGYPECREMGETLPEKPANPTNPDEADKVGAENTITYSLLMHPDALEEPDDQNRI
fold less binding than other variants [6],Substance,Kd [1],Kd [2],Kd [3],Kd [4],Kd [5]
,CAP256-VRC26.29 IgG1 (from UniProt P01857),4.5 µM,5.2 µM,3.6 µM,5.5 µM,5.4 µM
,CAP256-VRC26.25 IgG1,3.9 µM,5.7 µM,2.4 µM,5.6 µM,6.6 µM
,CAP256-VRC26.25 IgG3*01,3.1 µM,3.9 µM,2.2 µM,1 µM,4.6 µM
1.7 to 1.9 fold,FcγRIIIa,,,,,
,CAP256-VRC26.29 IgG3*01m (from UniProt P01860),3.9 µM,,2.7 µM,1.4 µM,
,CAP256-VRC26.25 IgG3*17,4.9 µM,2 µM,4.1 µM,1 µM,4.5 µM
,CAP256-VRC26.29 IgG3*01 (from UniProt P01860),4.4 µM,,2.6 µM,1.3 µM,
,CAP256-VRC26.29 IgG3*17 (from UniProt P01860),4.5 µM,2.9 µM,2.4 µM,1.3 µM,4.1 µM
